The values below come from paper PMC12603276.

In the experiment the target is MORC2 (UniProt Q9Y6X9). Nature of the experiment: co-IP of Flag-rPGK1, immunoblot. The conditions noted are these: reference: WT Flag-rPGK1; sites S256. (A western blot detects proteins with antibodies after separation by electrophoresis.)

Take “PGK1 (from UniProt P00558) Flag-rPGK1 S256A”: the “binding against the reference” value was “lost”.
